Data taken from patent US20060235215A1 (published 2006).

T1: Hypothetical Protein 003118-3674 Similar to Lycopersicon esculentum Calmodulin, bait fragment aa 75-149 (Oryza sativa, UniProt Q84VG0 75-148)
T1 construct: bait; also called PN20551
T1 sequence: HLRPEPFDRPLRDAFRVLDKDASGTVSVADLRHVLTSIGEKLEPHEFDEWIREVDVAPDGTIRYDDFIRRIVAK

T2: Auxin induced protein-like PN24061, prey clone aa 34-236 (Oryza sativa, UniProt A2XLV9 34-236)
T2 construct: prey; AD fusion; output trait library
T2 sequence: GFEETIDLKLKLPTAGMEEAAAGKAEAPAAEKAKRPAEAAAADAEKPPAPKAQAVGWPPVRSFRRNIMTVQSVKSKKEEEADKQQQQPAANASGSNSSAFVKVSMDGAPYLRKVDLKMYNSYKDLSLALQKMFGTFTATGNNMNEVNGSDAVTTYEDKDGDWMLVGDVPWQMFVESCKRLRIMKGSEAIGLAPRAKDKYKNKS

T3: Soluble Starch Synthase, prey clone aa 68-270 (Oryza sativa, UniProt A2Y9M4 68-270)
T3 construct: prey; AD fusion; input trait library; also called OsSSS; PN19701
T3 sequence: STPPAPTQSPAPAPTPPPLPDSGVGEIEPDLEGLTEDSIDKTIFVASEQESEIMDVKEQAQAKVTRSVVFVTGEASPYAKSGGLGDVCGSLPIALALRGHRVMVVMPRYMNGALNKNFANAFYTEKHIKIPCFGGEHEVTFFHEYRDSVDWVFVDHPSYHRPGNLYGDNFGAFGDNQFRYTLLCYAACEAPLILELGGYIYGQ

T4: Soluble Starch Synthase, prey clone aa 97-263 (Oryza sativa, UniProt A2Y9M4 97-263)
T4 construct: prey; AD fusion; output trait library; also called OsSSS; PN19701
T4 sequence: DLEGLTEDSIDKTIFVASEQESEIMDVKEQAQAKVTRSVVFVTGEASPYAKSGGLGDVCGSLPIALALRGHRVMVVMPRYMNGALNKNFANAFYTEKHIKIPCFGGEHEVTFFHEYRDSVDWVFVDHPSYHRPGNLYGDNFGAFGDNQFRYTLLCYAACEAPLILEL

T5: Hypothetical Protein 006819-2510, Similar to Hemerocallis Senescence-Related Protein 5, bait fragment aa 1-150 (Oryza sativa)
T5 construct: bait; also called Os006819-2510; PN20462
T5 chain: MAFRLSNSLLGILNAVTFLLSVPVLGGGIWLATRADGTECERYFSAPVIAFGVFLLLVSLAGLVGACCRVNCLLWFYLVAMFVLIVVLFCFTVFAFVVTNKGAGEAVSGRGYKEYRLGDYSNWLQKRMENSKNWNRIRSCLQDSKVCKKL

T6: O. sativa Serine/Threonine Protein Phosphatase PP2A-2, Catalytic Subunit, bait fragment aa 150-308 (Oryza sativa, UniProt A2XN40 150-307)
T6 construct: bait; also called OsPP2A-2; PN20254
T6 sequence: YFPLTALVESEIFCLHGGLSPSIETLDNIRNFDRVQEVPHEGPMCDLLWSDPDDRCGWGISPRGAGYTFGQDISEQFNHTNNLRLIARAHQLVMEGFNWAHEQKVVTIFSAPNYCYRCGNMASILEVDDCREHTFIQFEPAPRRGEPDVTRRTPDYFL

T7: Elicitor responsive protein, bait fragment aa 23-120 (Oryza sativa, UniProt Q0JBH9 23-120)
T7 construct: bait; also called OsERP; PN20696
T7 sequence: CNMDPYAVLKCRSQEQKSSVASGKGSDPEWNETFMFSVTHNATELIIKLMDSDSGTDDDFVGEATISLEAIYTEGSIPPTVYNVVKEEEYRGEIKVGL

B1: Elicitor responsive protein, prey clone aa 54-144 (other)
chain: ETFMFSVTHNATELIIKLMDSDSGTDDDFVGEATISLEAIYTEGSIPPTVYNVVKEEEYRGEIKVGLTFTPEDDRDRGLSEEDIGGWKQSS
notes: prey; AD fusion; input trait library; also called OsERP; PN20696
B2: Oryza sativa Putative Myosin, prey clone aa 824-935 (other)
chain: SLARKHRAAIILQRNLKCWLARRYFVNIRKASVVIQSGIRGCLVRRCAGNVDLLNVLREFESKKEAEGDQILIKASFLAELQRRILKAEATVREKDEENEMLQQRLQQYENR
notes: prey; AD fusion; output trait library; also called OsPN23878
B3: OsSGT1, bait fragment aa 200-368 (other)
chain: QMLSVSIEVPGEEPYHFQPRLFSKIIPEKSRYQVLSTKVEIRLAKAEQITWTSLDYDKKPKAVPQKIIPPAESAQRPSYPSSKSKKDWDKLEAEVKKEEKEEKLEGDAALNKFFRDIYSDADEDMRRAMMKSFVESNGTVLSTNWKDVGSKKVEGSPPDGMELKKWEY
notes: bait; also called PN20285
B4: O. sativa Calreticulin Precursor, bait fragment aa 250-425 (other)
chain: PKEIPDPDAKKPEAGADEEDGEWTAPTIRNPEYKGPWKQKKIKNPNYQGKWKPPMIATPDFQDDPYIYAFDSLKSIGIELWQVKSGTLFDNILITDDAALAKTFAEETWAKHKDAEKAAFDEAEKKKEEEEAAKAGEDDDDLDDEDAEDEDKADEKADSDAEDGKDSDDEKHDEL
notes: bait; text says OsCRTC has 424 aa; also called OsCRTC; PN20544
B5: Oryza sativa Putative Myosin, prey clone aa 685-888 (other)
chain: IYEQGLVLQQLKCCGVLEVVRISRSGYPTRMTHQKFARRYGFLLLEDVASQDPLSVSVAILHQFNILPEMYQVGYTKLFFRTGQIGKLEDTRNRTLHGILRVQSCFRGHQARRHARERIRGVLALQSFIRGENARKMYSSLARKHRAAIILQRNLKCWLARRYFVNIRKASVVIQSGIRGCLVRRCAGNVDLLNVLREFESKKE
notes: as for B2
B6: O. sativa Glutelin CAA33838, prey clone aa 5-155 (other)
chain: VFSRFSIYFCVLLLCHGSMAQLFNPSTNPWHSPRQGSFRECRFDRLQAFEPLRKVRSEAGVTEYFDEKNELFQCTGTFVIRRVIQPQGLLVPRYTNIPGVVYIIQGRGSMGLTFPGCPATYQQQFQQFSSQGQSQSQKFRDEHQKIHQFRQ
notes: prey; AD fusion; output trait library; also called OsCAA33838; PN24775
B7: Novel Protein PN29037, prey clone aa 73-165 (other)
chain: VVFDKDGVLEQIGEGKGYVDMSTVDAATSCKISEAIKQKGGAFVEAPVSGSKKPAEDGQLVILAAGDKVLYDDMVPAFDVLGKKSFFLGEIGN
notes: prey; AD fusion; input trait library; also called OsPN29037
B8: Receptor-like protein kinase-like PN31085, prey clone aa 378-553 (other)
chain: NGTISDSLGNLSELSDINLIGNNLTGHVPDSLTSLRLLQKLDLSGNDLTGPLPTFSPSVKVNVTGNLNFNGTAPGSAPSKDTPGSSSSRAPTLPGQGVLPENKKKRSAVVLATTIPVAVSVVALASVCAVLIFRKKRGSVPPNAASVVVHPRENSDPDNLVKIVMVNNDGNSSSTQ
notes: prey; AD fusion; output trait library
B9: OsSGT1, prey clone aa 9-227 (other)
chain: LESKAKAAFVDDDFELAAELYTQAIEASPATAELYADRAQAHIKLGNYTEAVADANKAIELDPSMHKAYLRKGAACIRLEEYQTAKAALELGYSFASGDSRFTRLMKECDERIAEELTEVPVKKAEDGAAAPSVASFVEEKDDAANMDNTPPMVEVKPKYRHDFYNSATEVVLTIFAKGVPAENVVVDFGEQMLSVSIEVPGEEPYHFQPRLFSKIIPE
notes: prey; AD fusion; output trait library; also called PN20285
B10: HSP70-like PN23949, prey clone aa 244-418 (other)
chain: HKLKSSLILMPMVSLLLLLLIRVLGRNRISPSPALSTLPKDEVERMVEEADKFAQEDKEKRDAIDTKNQADSVVYQTEKQLKELGDKVPAPVKEKVDAKLNELKEAIAGGSTQSMKDAMAALNEEVMQIGQAMYNQQPNAGAAGPTPGADAGPTSSGGKGPNDGDVIDADFTDSN
notes: as for B8
B11: Novel Protein PN29950, prey clone aa 7-103 (other)
chain: TANLVGQITTTCTDDISVNRSAENSSQKNIPLDGVSAQSIKPSASSRSEPVGLGGGLQPKRRSRTAKPPGSSSDTGEVVNSSRISNSQNAVSMGQQV
notes: prey; AD fusion; output trait library; also called OsPN29950
B12: Hypothetical Protein 011994-D16, Similar to Z. mays DnaJ protein, prey clone aa 99-368 (other)
chain: FGPSFGGGGSSRGRRQRRGEDVIHPLKVSLEDLYNGTSKKLSLSRNVLCAKCKGKGSKSGASMRCPGCQGSGMKITIRQLGPSMIQQMQQPCNECKGTGESINEKDRCPGCKGEKVIQEKKVLEVHVEKGMQHNQKITFPGEADEAPDTVTGDIVFVLQQKDHSKFKRKGDDLFYEHTLSLTEALCGFQFVLTHLDNRQLLIKSNPGEVVKPDQFKAINDEGMPMYQRPFMKGKLYIHFTVEFPDSLAPEQCKALEAVLPPKPASQLTEM
notes: prey; AD fusion; output trait library; also called Os011994-D16; PN20618
B13: Novel Protein PN29950, prey clone aa 50-343 (other)
chain: ASSRSEPVGLGGGLQPKRRSRTAKPPGSSSDTGEVVNSSRISNSQNAVSMGQQVLQALASQNTNVNRSHVTDSPLPSTTSQFSGGMPPRRQGGEGQVDFGSMISSVLNNPAFGNLLSNVAEQTGMGSAGDLRNMVEECAQSPAIMDTMSNLVQNVDGSGRGQGGIDLSRMMQQMMPVVSQVLGGAGARPAGTNSGQSRLQPRRSDMRVDDASDYGNSQIDLHQAREHIEQHDSPRDIFGAVLETAAQAYGEDESIEDMLEELVSDPELTDDYLKLLLQQVRQRIQSASQSGNQS
notes: as for B11
B14: Novel Protein PN29950, prey clone aa 138-343 (other)
chain: RRQGGEGQVDFGSMISSVLNNPAFGNLLSNVAEQTGMGSAGDLRNMVEECAQSPAIMDTMSNLVQNVDGSGRGQGGIDLSRMMQQMMPVVSQVLGGAGARPAGTNSGQSRLQPRRSDMRVDDASDYGNSQIDLHQAREHIEQHDSPRDIFGAVLETAAQAYGEDESIEDMLEELVSDPELTDDYLKLLLQQVRQRIQSASQSGNQS
notes: prey; AD fusion; output trait library; two clones; also called OsPN29950
B15: Novel Protein PN24162, Porin-like, Voltage-Dependent Anion Channel Protein, prey clone aa 28-164 (other)
chain: QKLTVSTVSSSGVGLTSTAVKKGGLYTLDVSSVYKYKSTLVDVKVDTESNISTTLTVFDVLPSTKLVTSVKLPDYNSGKVEMQYFHENASFATAVGMKPSPVVEFSGTAGAQGLAFGAEAGFDTATGKFTKYSAAIG
notes: prey; AD fusion; output trait library; also called OsPN24162

What was measured:
Test in all cases: yeast two-hybrid
[1] = target: B3
Procedure: (§1) Yeast carrying the target gene construct was combined with yeast carrying the activation domain library. The two yeast strains mated to form diploid yeast and were plated on media that selected for expression of one or more Ga14p-responsive reporter genes. Thus, both hybrid proteins (i.e., the target “bait” protein and the activation domain “prey” protein) were expressed in a yeast reporter strain where an interaction between the test proteins results in transcription of the reporter genes […]. Colonies that arose after incubation were selected for further characterization. The activation domain plasmid was isolated from each colony obtained in the two-hybrid search. The sequence of the insert in this construct was obtained by sequence analysis (e.g., Sanger's dideoxy nucleotide chain termination method; see Ausubel et al., 1988, including updates up to 2002). Thus, the identity of positives obtained from these searches was determined by sequence analysis against proprietary and public (e.g., GENBANK®) nucleic acid and protein databases.
(§2) The rice SGT1 protein shares 74 and 75% amino acid sequence similarity with two Arabidopsis thaliana SGT1 homologs and 45% amino acid sequence similarity with Saccharomyces cerevisiae SGT1. In yeast, SGT1 is required for cell-cycle progression at the G1/S-phase and G2/M-phase transitions. In A. thaliana, SGT1b interacts with Rar1 and mediates disease resistance. Thus, in plants, SGT1 likely controls processes that are fundamental to disease resistance and development. The rice OsSGT1 protein was chosen as a bait for these interaction studies based on its potential relevance to disease resistance and development.

[2] = target: T1, Hypothetical Protein 003118-3674 …
[3] = target: T2, Auxin induced protein-like PN24061, …
Procedure: as §1, §2

[4] = target: T3, Soluble Starch Synthase, prey clone aa …
[5] = target: T4, Soluble Starch Synthase, prey clone aa …
[6] = target: T5, Hypothetical Protein 006819-2510, …
[7] = target: T6, O. sativa Serine/Threonine Protein …
[8] = target: T7, Elicitor responsive protein, bait …
[9] = target: T8, O. sativa Calreticulin Precursor, bait fragment aa 1-150 (Oryza sativa, UniProt Q9SLY8 1-150)
T8 construct: bait; also called OsCRTC; PN20544
T8 sequence (Q9SLY8 1-150): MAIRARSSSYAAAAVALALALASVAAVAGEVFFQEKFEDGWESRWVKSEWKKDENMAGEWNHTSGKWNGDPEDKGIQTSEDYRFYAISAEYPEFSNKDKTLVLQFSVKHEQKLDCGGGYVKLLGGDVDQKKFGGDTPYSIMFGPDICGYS

Binder: B1
- binding result [1]: binds

Binder: B2
- binding result [2]: binds

Binder: B3
- binding result [3]: binds

Binder: B4
- binding result [4]: binds
- binding result [5]: binds

Binder: B5
- binding result [6]: binds

Binder: B6
- binding result [7]: binds

Binder: B7
- binding result [6]: binds

Binder: B8
- binding result [8]: binds

Binder: B9
- binding result [1]: binds

Binder: B10
- binding result [1]: binds

Binder: B11
- binding result [9]: binds

Binder: B12
- binding result [7]: binds

Binder: B13
- binding result [9]: binds

Binder: B14
- binding result [9]: binds

Binder: B15
- binding result [7]: binds
